Test results as given in US20060019241A1, “Na+ and CI-coupled transport system for endogenous opioid peptides” (priority 2004, published 2006).
“Also recorded” adds a separate entry of the source. Ends that are not written are not given here.

Tests used:
[1] = biological target: Na+- and Cl--coupled transport system for endogenous opioid peptides (human cell lines ARPE-19, Tat-ARPE-19 and SK-N-SH) (human); assay: cell-based or functional assay
[2] = system: deltorphin II transport system in Tat-ARPE-19 cells; assay: Inhibition of [^3H]deltorphin II uptake in Tat-ARPE-19 cells; type: cell-based, human; conditions: [^3H]deltorphin II 50 nM; for competition with deltorphin for the uptake process (in words): Tat-ARPE-19 / RPE cells, compound 1 mM; for [^3H] Deltorphin II uptake / [^3H] Deltorphin II uptake (%) of control: Tat-ARPE-19 cells, 30 minutes, NaCl, inhibitor 1 mM; for [^3H] Deltorphin II uptake (%) of control: control = 100
Source text: Stable transfection of ARPE-19 cells with pcDNA-Tat cDNA. The pGEM2-Tat cDNA construct contained as the insert a 295 basepair (bp) fragment encoding the first exon of HIV-1 Tat gene joined to a 145 bp pET3A transcription terminator. The entire insert (440 bp) was removed from the construct by digestion with PstI and EcoRI and ligated into the multiple cloning region of pcDNA3.1 (−) vector at PstI/EcoRI site so that the insert is downstream of the cytomegalovirus (CMV) promoter. The resultant construct was sequenced to confirm the orientation of the insert. This construct was electroporated into ARPE-19 cells and the stably transfected cell clones were isolated in the presence of Geneticin (G418). To serve as a control, empty pcDNA3.1 vector was electroporated into ARPE-19 cells in an identical manner and the clones harboring the vector were selected by G418 resistance.
Uptake measurements in control ARPE-19 cells and Tat-ARPE-19 cells. Control ARPE-19 cells and Tat-ARPE-19 cells were maintained in 75-cm^2 culture flasks in Dulbecco's modified Eagle's medium/F12 medium (1:1, volume/volume (v/v)) in the presence of fetal bovine serum (10%) and G418 (100 μg/ml). For uptake measurements, cells were released by trypsin treatment and seeded in 24-well culture plates at an initial density of 0.1×10^6 cells/well. The culture medium was replaced with fresh medium on the second day following the initial seeding and uptake measurements were made on the third day. […] After incubation at 37° C. for a desired time, uptake was terminated by the removal of the medium and washing of the cells with ice-cold uptake buffer. The cells were then dissolved in 1% SDS in 0.2 M NaOH and used for measurement of radioactivity. The uptake buffer in most experiments was 25 mM Hepes/Tris (pH 7.5), containing 140 mM NaCl, 5.4 mM KCl, 1.8 mM CaCl2, 0.8 mM MgSO4 and 5 mM glucose.
When the influence of Na^+ on the uptake process was investigated, the concentration of NaCl in the uptake buffer was adjusted, as desired, by isoosmotically replacing NaCl with N-methyl-D-glucamine chloride. To assess the influence of Cl^− on the uptake process, the composition of the uptake medium was modified by replacing KCl and CaCl2 with equimolar concentrations of potassium gluconate and calcium gluconate and the concentration of NaCl was adjusted, as desired, by iso-osmotically replacing NaCl with sodium gluconate. Saturation kinetics were analysed by fitting the data to the Michaelis-Menten equation. The Michaelis-Menten constant, Kt, was calculated by non-linear regression analysis and then confirmed by linear regression. Na^+- and Cl^−-activation kinetics were analyzed by fitting the data to the Hill equation and the Hill coefficients for Na^+ and Cl^− (h; the number of Na^+ and Cl^− ions involved in the activation process) and the K0.5 values (the concentration of Na^+ and Cl^−-needed for half-maximal activation) were determined from the analysis. Again, these constants were first calculated by non-linear regression methods and subsequently confirmed by linear regression methods. Experiments were repeated three times in duplicate and the results are given as means±S.E.M.
Substrate specificity of the deltorphin transport system. […] These peptides consisted of 4-13 amino acids.
Relative affinities of endogenous opioid peptides for the transport system.

Molecule	IC50 for inhibition of [3H]deltorphin II uptake in Tat-ARPE-19 cells [1] [mM]	[3H]deltorphin II (50 nM) uptake in Tat-ARPE-19 cells, 30 min, NaCl, inhibitor 1 mM (pmol/mg protein/30 min) [1]	[3H]deltorphin II uptake (%) in Tat-ARPE-19 cells, inhibitor 1 mM [1]	competition with deltorphin for the uptake process (in words) [2]	[^3H] Deltorphin II uptake [2] [pmol/mg protein/30 min]	[^3H] Deltorphin II uptake (%) of control [2] [%]	other results
Dynorphin A (1-6) (Tyr-Gly-Gly-Phe-Leu-Arg) (peptide)	4.2	0.12	2 % of control	–	–	–	[3H]deltorphin II (50 nM) uptake in control ARPE-19 cells, 30 min, NaCl, opioid peptide 1 mM (pmol/mg protein/30 min) [1]: 0.06; [3H]deltorphin II uptake (%) in control ARPE-19 cells, opioid peptide 1 mM [1]: 5 % of control; affinity from concentration-dependent inhibition of [3H]deltorphin II (25 nM) uptake in SK-N-SH cells [1]: 3.5 µM
Tyr-Pro-Leu-Gly-NH2 (YPLG-NH2) [Tyr-MIF-1]	–	–	–	no or little inhibition; also recorded: not recognized	9.20 ± 0.15	119	–
Gly-Gly-Ile (peptide)	–	–	–	–	–	–	stimulation of deltorphin II uptake in SK-N-SH cells [1]: 6 to 8 fold
α-Neo-endorphin (1-6) (Tyr-Gly-Gly-Phe-Met-Lys) (peptide)	–	0.19	3 % of control	–	–	–	–
Carnosine (β-Ala-His) (peptide)	–	6.21	80 % of control	–	–	–	–
Tyr-Gly-Gly-Phe-Met-NH2 (YGGFM; printed: Tyr-Gly-Gly-Phe-Met-) [Met-enkephalinamide]	–	–	–	marked inhibition	0.69 ± 0.01	9	–
[des-Tyr1]Met-enkephalin (Gly-Gly-Phe-Met) (peptide)	31.9	0.74	10 % of control	–	–	–	–
Leu-enkephalin (Tyr-Gly-Gly-Phe-Leu) (peptide)	9.5	0.15	2 % of control	–	–	–	affinity from concentration-dependent inhibition of [3H]deltorphin II (25 nM) uptake in SK-N-SH cells [1]: 7.8 µM
β-Casomorphin (Tyr-Pro-Phe-Pro-Gly-Pro-Ile) (peptide)	–	2.03	26 % of control	–	–	–	–
[Arg6, Gly7, Leu8]Met-enkephalin (Tyr-Gly-Gly-Phe-Met-Arg-Gly-Leu) (peptide)	2.5	0.09	1 % of control	–	–	–	[3H]deltorphin II (50 nM) uptake in control ARPE-19 cells, 30 min, NaCl, opioid peptide 1 mM (pmol/mg protein/30 min) [1]: 0.04; [3H]deltorphin II uptake (%) in control ARPE-19 cells, opioid peptide 1 mM [1]: 4 % of control
N[C@@H](Cc1ccc(O)cc1)C(=O)O [L-Tyrosine]	–	–	–	did not compete	7.52 ± 0.15	97	–
NCC(=O)O [Glycine]	–	–	–	did not compete	7.23 ± 0.14	93	–
NCCC(=O)N[C@@H](Cc1cnc[nH]1)C(=O)O [Carnosine, β-Ala-His]	–	–	–	did not compete	6.21 ± 0.08	80	–
O=C(O)[C@@H]1CCCN1 [L-Proline]	–	–	–	did not compete	7.31 ± 0.20	94	–
Gly-Gly-Gly (peptide)	–	9.68	125 % of control	–	–	–	–
Tyr-Pro (peptide)	–	5.72	74 % of control	–	–	–	–
Tyr-Pro	–	–	–	did not compete	5.72 ± 0.09	74	–
[Arg6, Phe7]Met-enkephalin (Tyr-Gly-Gly-Phe-Met-Arg-Phe) (peptide)	9.1	0.11	1 % of control	–	–	–	[3H]deltorphin II (50 nM) uptake in control ARPE-19 cells, 30 min, NaCl, opioid peptide 1 mM (pmol/mg protein/30 min) [1]: 0.05; [3H]deltorphin II uptake (%) in control ARPE-19 cells, opioid peptide 1 mM [1]: 4 % of control
Met-enkephalinamide (Tyr-Gly-Gly-Phe-Met-NH2) (peptide)	13	0.69	9 % of control	–	–	–	–
Tyr-Gly-Gly-Phe (YGGF; printed: Tyr-Gly-Gly-Phe) [β-Lipotropin]	–	–	–	no or little inhibition	6.26 ± 0.31	81	–
Dynorphin A (1-7) (Tyr-Gly-Gly-Phe-Leu-Arg-Arg) (peptide)	7.3	0.1	1 % of control	–	–	–	[3H]deltorphin II (50 nM) uptake in control ARPE-19 cells, 30 min, NaCl, opioid peptide 1 mM (pmol/mg protein/30 min) [1]: 0.05; [3H]deltorphin II uptake (%) in control ARPE-19 cells, opioid peptide 1 mM [1]: 5 % of control; affinity from concentration-dependent inhibition of [3H]deltorphin II (25 nM) uptake in SK-N-SH cells [1]: 4.6 µM
YGGFMK [α-Neo-endorphin (1-6)]	–	–	–	marked inhibition	0.19 ± 0.01	3	–
β-Lipotropin (Tyr-Gly-Gly-Phe) (peptide)	–	6.26	81 % of control	–	–	–	–
YPFPGPI [β-Casomorphin]	–	–	–	–	2.03 ± 0.05	26	–
Met-enkephalin (Tyr-Gly-Gly-Phe-Met) (peptide)	33.2	0.5	6 % of control	–	–	–	[3H]deltorphin II (50 nM) uptake in control ARPE-19 cells, 30 min, NaCl, opioid peptide 1 mM (pmol/mg protein/30 min) [1]: 0.06; [3H]deltorphin II uptake (%) in control ARPE-19 cells, opioid peptide 1 mM [1]: 5 % of control; affinity from concentration-dependent inhibition of [3H]deltorphin II (25 nM) uptake in SK-N-SH cells [1]: 10.7 µM
Gly-Gly-Phe-Met [[des-Tyr^1] Met-enkephalin]	–	–	–	marked inhibition	0.74 ± 0.03	10	–
YPLG-NH2 [tyrosine melanocyte-stimulating hormone inhibitory factor 1 (Tyr-MIF-1; Tyr-Pro-Leu-Gly-NH2)]	–	9.2	119 % of control	–	–	–	–
YGGFLRRQF [Dynorphin B (1-9) (Tyr-Gly-Gly-Phe-Leu-Arg-Arg-Gln-Phe)]	3.1	0.08	1 % of control	–	–	–	[3H]deltorphin II (50 nM) uptake in control ARPE-19 cells, 30 min, NaCl, opioid peptide 1 mM (pmol/mg protein/30 min) [1]: 0.06; [3H]deltorphin II uptake (%) in control ARPE-19 cells, opioid peptide 1 mM [1]: 5 % of control
